Measured values published in US20010014328A1.

Biological target: human FcαRI (IgA Fc receptor, CD89) on effector cells (human) (UniProt P24071)
Test: cell-based or functional assay

Row | BsAb-dependent lysis of SKBR-3 cells by purified PMN, 1.0 µg/ml BsAb (FIG. 10) [%] | cytolysis of SKBR-3 breast tumor cells by effector cells in whole blood, 0.1 µg/ml BsAb (FIG. 8) [%] | cytolysis of SKBR-3 breast tumor cells by effector cells in whole blood, 1.0 µg/ml BsAb (FIG. 8) [%] | percent effector cells (monocytes or neutrophils) engaged in phagocytosis of SKBR-3 cells (FIG. 18) [%] | phagocytosis of SKBR-3 cells by monocyte-derived macrophages, 0.1 µg/ml BsAb (FIG. 19, panel 5; about 45% without BsAb) [%] | BsAb-dependent lysis of A431 cells by purified monocytes (FIG. 14) [%] | BsAb-dependent lysis of A431 cells with whole blood as source of effector cells (FIG. 15) [%] | cytolysis of tumor cells by TNF-treated monocytes, 1.0 µg/ml BsAb (FIG. 23) [%] | cytolysis of tumor cells by untreated monocytes, 1.0 µg/ml BsAb (FIG. 23) [%] | Substance | cytotoxicity of SKBR-3 cells by neutrophil effector cells (51Cr release), 0.1 µg/ml BsAb (FIG. 7) [%] | cytotoxicity of SKBR-3 cells by neutrophil effector cells (51Cr release), 1.0 µg/ml BsAb (FIG. 7) [%] | cytotoxicity of SKBR-3 cells by neutrophils pre-incubated with G-CSF and IFN-γ, 0.1 µg/ml BsAb (FIG. 22) [%]
1 | < 37 | 15 to 20 | 25 to 30 | 65 to 75 | > 95 | – | – | – | – | A77X520C9 anti-FcαRXanti-HER2/neu bispecific antibody | 6 to 9 | 20 to 30 | > 10
2 | – | – | – | – | – | < 55 | < 43 | > 60 | > 60 | A77XH425 bispecific antibody (anti-FcαRI x anti-EGF-R) | – | – | –
